Assay results from the supplement of paper PMC10065799, “High-throughput profiling of sequence recognition by tyrosine kinases and SH2 domains using bacterial peptide display” (eLife, 2023).

Columns and labels:
c-Src SH2 = assay: SH2 binding enrichment of the phosphorylated peptide, bacterial display (enrichment ratio); higher = better substrate or ligand; peptides without Tyr show the background
Grb2 SH2 = Grb2 SH2 (UniProt P62993); assay: as above
SHP2-C SH2 = assay: as above
FGFR3 = FGFR3 (UniProt P22607); assay: phosphorylation enrichment, bacterial display (enrichment ratio); higher = better substrate or ligand; peptides without Tyr show the background
Chain of FGFR3 (P22607 whole entry, looked up): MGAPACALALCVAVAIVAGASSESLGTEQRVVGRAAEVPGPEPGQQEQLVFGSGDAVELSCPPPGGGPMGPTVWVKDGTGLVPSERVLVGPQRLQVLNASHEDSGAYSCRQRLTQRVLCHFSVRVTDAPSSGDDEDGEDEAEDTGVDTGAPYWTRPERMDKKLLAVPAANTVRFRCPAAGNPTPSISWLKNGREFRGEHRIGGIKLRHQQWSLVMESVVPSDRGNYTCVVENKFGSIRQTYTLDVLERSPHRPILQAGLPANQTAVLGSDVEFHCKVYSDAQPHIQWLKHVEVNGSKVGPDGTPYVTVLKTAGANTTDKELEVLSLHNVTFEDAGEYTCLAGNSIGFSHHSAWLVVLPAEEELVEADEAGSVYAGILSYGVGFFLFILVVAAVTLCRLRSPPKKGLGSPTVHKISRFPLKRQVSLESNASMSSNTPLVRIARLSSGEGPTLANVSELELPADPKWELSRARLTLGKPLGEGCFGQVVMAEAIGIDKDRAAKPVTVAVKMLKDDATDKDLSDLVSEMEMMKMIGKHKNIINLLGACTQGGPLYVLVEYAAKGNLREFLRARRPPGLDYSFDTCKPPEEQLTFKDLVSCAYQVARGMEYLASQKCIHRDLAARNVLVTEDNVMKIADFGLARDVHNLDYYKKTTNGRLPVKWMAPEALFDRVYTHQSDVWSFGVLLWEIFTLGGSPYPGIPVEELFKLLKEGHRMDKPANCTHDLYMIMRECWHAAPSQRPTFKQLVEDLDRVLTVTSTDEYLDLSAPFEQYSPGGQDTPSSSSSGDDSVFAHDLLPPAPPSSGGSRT

Fer (mouse) = assay: as above
EPHB1 = EPHB1 (UniProt P54762); assay: as above
Jak2 = Jak2 (UniProt O60674); assay: as above
MERTK = MERTK (UniProt Q12866); assay: as above
Chain of MERTK (Q12866 whole entry, looked up): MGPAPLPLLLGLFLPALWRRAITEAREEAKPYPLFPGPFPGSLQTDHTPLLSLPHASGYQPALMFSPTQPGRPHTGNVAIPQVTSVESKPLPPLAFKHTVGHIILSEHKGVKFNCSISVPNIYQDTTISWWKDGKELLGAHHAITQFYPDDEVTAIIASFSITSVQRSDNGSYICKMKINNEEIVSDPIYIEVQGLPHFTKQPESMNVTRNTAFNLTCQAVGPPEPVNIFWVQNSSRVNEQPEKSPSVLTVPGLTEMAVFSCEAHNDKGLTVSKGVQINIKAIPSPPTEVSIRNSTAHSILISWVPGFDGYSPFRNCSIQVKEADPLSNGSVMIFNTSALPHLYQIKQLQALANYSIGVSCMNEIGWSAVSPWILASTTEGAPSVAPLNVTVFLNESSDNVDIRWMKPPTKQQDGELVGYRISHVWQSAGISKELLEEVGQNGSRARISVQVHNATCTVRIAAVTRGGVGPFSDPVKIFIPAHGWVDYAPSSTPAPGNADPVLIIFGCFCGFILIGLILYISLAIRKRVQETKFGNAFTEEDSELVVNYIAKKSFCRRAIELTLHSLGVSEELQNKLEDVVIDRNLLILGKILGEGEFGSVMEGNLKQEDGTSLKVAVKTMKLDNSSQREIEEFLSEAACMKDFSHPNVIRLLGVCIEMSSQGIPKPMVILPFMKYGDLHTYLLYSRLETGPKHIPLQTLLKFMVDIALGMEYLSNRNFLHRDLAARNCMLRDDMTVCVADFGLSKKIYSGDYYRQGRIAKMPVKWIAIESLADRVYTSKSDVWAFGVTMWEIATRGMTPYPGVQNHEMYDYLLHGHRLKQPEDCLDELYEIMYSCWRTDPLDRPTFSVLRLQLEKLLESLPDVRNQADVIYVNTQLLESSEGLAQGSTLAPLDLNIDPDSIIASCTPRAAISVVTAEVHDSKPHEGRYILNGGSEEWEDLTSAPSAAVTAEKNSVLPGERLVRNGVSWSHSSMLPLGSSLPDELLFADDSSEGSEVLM

AncSZ = assay: as above
Hck = Hck (UniProt P08631); assay: as above
Chain of Hck (P08631 whole entry, looked up): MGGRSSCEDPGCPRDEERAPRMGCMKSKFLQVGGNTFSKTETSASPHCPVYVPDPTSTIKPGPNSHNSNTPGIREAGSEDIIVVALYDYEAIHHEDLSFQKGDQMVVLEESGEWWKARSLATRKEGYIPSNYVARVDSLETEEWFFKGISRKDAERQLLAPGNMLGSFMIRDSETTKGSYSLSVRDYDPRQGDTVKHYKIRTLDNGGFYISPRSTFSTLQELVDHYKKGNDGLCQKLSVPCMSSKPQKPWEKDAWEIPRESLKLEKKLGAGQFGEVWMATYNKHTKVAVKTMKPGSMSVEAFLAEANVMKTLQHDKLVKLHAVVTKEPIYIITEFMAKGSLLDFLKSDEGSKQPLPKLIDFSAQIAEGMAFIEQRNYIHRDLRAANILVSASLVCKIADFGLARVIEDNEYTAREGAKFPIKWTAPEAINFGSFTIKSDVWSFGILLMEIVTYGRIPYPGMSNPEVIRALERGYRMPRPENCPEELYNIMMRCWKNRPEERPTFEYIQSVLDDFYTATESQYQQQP

Fyn = Fyn (UniProt P06241); assay: as above
EPHB2 = EPHB2 (UniProt P29323); assay: as above
Chain of EPHB2 (P29323 whole entry, looked up): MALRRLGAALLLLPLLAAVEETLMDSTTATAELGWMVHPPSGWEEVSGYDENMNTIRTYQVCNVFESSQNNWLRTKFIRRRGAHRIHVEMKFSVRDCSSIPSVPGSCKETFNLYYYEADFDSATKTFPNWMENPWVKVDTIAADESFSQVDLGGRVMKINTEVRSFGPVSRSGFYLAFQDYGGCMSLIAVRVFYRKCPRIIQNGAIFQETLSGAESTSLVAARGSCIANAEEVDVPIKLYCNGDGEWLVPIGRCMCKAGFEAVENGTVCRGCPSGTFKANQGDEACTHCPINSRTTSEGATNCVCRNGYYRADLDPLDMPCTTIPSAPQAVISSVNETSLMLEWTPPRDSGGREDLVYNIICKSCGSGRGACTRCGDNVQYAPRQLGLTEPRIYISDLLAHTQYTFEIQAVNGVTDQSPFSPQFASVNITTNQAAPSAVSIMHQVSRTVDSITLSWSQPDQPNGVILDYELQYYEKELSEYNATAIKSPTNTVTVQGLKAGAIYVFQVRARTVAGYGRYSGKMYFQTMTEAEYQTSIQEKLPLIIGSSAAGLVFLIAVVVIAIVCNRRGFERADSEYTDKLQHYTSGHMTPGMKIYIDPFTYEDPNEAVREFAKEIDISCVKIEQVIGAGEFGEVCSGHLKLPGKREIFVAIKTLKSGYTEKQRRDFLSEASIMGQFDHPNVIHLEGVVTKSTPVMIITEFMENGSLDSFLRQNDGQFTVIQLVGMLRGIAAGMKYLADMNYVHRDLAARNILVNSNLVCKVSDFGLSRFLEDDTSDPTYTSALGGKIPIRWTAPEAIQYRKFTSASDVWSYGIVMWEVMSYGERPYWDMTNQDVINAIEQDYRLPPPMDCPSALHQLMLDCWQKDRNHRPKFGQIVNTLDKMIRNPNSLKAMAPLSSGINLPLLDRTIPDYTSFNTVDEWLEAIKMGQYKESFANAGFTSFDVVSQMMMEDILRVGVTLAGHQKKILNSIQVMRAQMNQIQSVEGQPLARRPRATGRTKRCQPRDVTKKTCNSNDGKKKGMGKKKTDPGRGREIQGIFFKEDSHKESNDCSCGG

FGFR1 = FGFR1 (UniProt P11362); assay: as above
Chain of FGFR1 (P11362 whole entry, looked up): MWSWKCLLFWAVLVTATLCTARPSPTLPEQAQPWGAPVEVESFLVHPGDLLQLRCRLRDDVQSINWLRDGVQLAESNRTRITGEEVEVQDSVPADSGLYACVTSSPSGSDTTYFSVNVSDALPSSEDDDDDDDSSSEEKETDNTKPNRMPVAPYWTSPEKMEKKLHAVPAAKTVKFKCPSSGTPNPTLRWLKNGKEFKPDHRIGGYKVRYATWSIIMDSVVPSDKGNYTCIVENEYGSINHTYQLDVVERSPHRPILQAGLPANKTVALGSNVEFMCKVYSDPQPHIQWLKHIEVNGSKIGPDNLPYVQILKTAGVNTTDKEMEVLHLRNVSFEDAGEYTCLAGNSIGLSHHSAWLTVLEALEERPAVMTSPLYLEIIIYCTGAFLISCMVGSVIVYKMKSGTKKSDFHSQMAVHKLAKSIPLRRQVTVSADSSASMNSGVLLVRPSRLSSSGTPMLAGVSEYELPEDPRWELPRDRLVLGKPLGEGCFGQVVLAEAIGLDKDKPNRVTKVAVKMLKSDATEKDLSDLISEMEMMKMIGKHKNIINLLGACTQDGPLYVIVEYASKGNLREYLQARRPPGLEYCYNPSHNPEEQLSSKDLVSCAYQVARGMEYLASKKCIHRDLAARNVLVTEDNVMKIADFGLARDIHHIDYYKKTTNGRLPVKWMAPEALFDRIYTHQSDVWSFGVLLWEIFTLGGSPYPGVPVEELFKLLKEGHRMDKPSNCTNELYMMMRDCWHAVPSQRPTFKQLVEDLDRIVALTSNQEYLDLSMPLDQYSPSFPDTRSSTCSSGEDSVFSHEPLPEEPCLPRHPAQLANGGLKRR

c-Abl (mouse) = assay: as above
c-Src = assay: as above
Fes = Fes (UniProt P07332); assay: as above
Chain of Fes (P07332 whole entry, looked up, the tested form may be a part): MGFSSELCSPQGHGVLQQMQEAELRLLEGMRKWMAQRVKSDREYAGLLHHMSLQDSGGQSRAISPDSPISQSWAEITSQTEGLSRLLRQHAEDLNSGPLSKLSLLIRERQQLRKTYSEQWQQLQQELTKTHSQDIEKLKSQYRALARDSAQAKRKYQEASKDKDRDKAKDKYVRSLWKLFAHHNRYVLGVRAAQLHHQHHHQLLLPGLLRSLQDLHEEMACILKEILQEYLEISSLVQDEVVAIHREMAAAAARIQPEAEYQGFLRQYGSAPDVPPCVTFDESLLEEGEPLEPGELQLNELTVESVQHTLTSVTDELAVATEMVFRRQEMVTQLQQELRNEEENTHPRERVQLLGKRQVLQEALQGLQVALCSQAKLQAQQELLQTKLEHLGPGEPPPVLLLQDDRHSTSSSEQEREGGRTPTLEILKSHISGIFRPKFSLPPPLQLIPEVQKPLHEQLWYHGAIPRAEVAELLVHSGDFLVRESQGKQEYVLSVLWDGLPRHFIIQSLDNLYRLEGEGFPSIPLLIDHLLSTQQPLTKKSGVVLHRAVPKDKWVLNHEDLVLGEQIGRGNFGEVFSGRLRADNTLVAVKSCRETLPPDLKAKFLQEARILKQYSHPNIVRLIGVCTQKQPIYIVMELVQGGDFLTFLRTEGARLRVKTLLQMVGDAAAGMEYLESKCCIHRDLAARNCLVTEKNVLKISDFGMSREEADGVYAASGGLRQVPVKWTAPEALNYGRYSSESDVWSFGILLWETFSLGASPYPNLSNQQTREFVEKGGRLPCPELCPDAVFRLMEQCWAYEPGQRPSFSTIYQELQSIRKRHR
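Throughout, for SH2 binding enrichment of the phosphorylated peptide, bacterial display: peptide library displayed on the E. coli surface as eCPX fusions, selected cells deep-sequenced, score is each peptide's frequency after selection divided by its frequency in the input.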
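Throughout, for phosphorylation enrichment, bacterial display: 11-residue human phosphosite peptides and single-mutation variants displayed on the E. coli surface, counted by deep sequencing, each peptide's frequency after selection divided by its frequency in the unselected input library; frequency after pTyr selection over input frequency; kinase dosed for 20-30% of maximal phosphorylation in three min.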

Row | SH2 binding enrichment (c-Src SH2) | SH2 binding enrichment (Grb2 SH2) | SH2 binding enrichment (SHP2-C SH2) | Sequence | phosphorylation enrichment (FGFR3) | phosphorylation enrichment (Fer (mouse)) | phosphorylation enrichment (EPHB1) | phosphorylation enrichment (Jak2) | phosphorylation enrichment (MERTK) | phosphorylation enrichment (AncSZ) | phosphorylation enrichment (Hck) | phosphorylation enrichment (Fyn) | phosphorylation enrichment (EPHB2) | phosphorylation enrichment (FGFR1) | phosphorylation enrichment (c-Abl (mouse)) | phosphorylation enrichment (c-Src) | phosphorylation enrichment (Fes)
1 | 0.587 | 0.973 | 1.18 | ADYPDYKYRPR [SOX11_Y116] | 0.613 | 0.342 | 0.48 | 0.601 | 0.378 | 0.673 | 0.505 | 0.389 | 0.489 | 0.594 | 0.461 | 0.409 | 0.718
2 | 0.737 | 0.956 | 0.674 | VGTKWYMAPEV [ACVRL1_Y375_R374W] | 0.747 | 0.374 | 1.78 | 0.963 | 2.9 | 0.899 | 0.458 | 0.364 | 1.93 | 0.827 | 0.726 | 0.416 | 0.764
3 | 18 | 1.08 | 0.794 | EADRKYEEVAR [TPM3_Y163] | 0.895 | 0.712 | 0.764 | 1.19 | 0.598 | 1.29 | 0.663 | 0.58 | 0.742 | 0.637 | 1.08 | 0.625 | 1.46
4 | 0.738 | 1.02 | 0.813 | QGCSIYKDYYR [PLA2G2D_Y82] | 1.57 | 0.724 | 1.68 | 1.08 | 0.67 | 1.29 | 2.92 | 3.56 | 0.734 | 1.27 | 0.731 | 4.85 | 1.47
5 | 0.457 | 0.669 | 0.702 | DQLVKHGVNPG [TMPO_Y127_Y127H] | 0.377 | 0.284 | 0.347 | 0.479 | 0.344 | 0.47 | 0.386 | 0.308 | 0.304 | 0.329 | 0.421 | 0.346 | 0.467
6 | 0.58 | 0.959 | 0.715 | LSPPVYLTNEW [NRK_Y885_I880L] | 0.758 | 0.636 | 0.736 | 1.54 | 0.616 | 0.935 | 0.651 | 0.587 | 0.851 | 0.702 | 1.21 | 0.909 | 1.26
7 | 0.469 | 0.813 | 0.58 | DKVFTYIFIME [SCN4A_Y1074] | 1.14 | 0.658 | 0.645 | 1.35 | 0.41 | 1.32 | 0.575 | 0.41 | 0.695 | 0.54 | 0.968 | 0.533 | 1.53
8 | 0.543 | 0.802 | 0.94 | RYVTRSIYNRE [HLA-DQB1_Y62_Y62S] | 0.327 | 0.495 | 0.226 | 1.1 | 0.601 | 0.772 | 0.682 | 0.553 | 0.389 | 0.622 | 0.735 | 0.705 | 1.1
9 | 1.33 | 1.86 | 1.71 | FIGCIYLFLTK [GARS1_Y414_R412C_YF] | 0.573 | 0.456 | 0.251 | 0.792 | 0.415 | 0.803 | 0.485 | 0.399 | 0.49 | 0.458 | 0.748 | 0.314 | 0.772
10 | 1.29 | 0.864 | 0.742 | GGMAEYTRLHN [EHHADH_Y4] | 0.442 | 0.359 | 0.494 | 0.691 | 0.378 | 0.609 | 0.451 | 0.32 | 0.374 | 0.382 | 0.532 | 0.421 | 0.597
11 | 1.28 | 0.728 | 1.01 | PYYTSYPPSPD [GDAP2_Y491] | 3.57 | 0.676 | 3.43 | 3.58 | 9.55 | 1.38 | 2.39 | 5.09 | 5.06 | 4.8 | 1.67 | 6.44 | 1.03
12 | 0.846 | 1.09 | 1.21 | RKKEEYKMALF [F8_Y1990_YF] | 0.607 | 0.494 | 0.734 | 0.691 | 0.391 | 0.759 | 0.465 | 0.31 | 0.738 | 0.4 | 0.72 | 0.555 | 0.708
13 | 1.44 | 2.04 | 1.77 | VRFVDYVLFRS [FAM189B_Y361_S358F] | 1.65 | 0.458 | 2.13 | 1.01 | 0.461 | 1 | 0.499 | 0.542 | 0.919 | 2.27 | 0.764 | 0.477 | 1.1
14 | 0.541 | 0.739 | 0.641 | DNKALYDICFR [TUBB3_Y208_E205K] | 0.853 | 4.5 | 2.95 | 1.18 | 7.18 | 1.38 | 4.34 | 2.6 | 2.23 | 0.612 | 1.41 | 3.21 | 1.26
15 | 0.491 | 0.914 | 0.559 | ADQLDYIKALN [HPRT1_Y81_L78Q] | 0.608 | 0.451 | 0.784 | 0.861 | 0.441 | 1.06 | 0.526 | 0.492 | 0.474 | 0.458 | 0.708 | 0.408 | 1.22
16 | 0.483 | 0.795 | 0.455 | QAEELYFGKMG [YES1_Y159_W158L] | 1.55 | 0.747 | 0.861 | 1.14 | 1.87 | 2.15 | 5.82 | 3.61 | 0.837 | 1.49 | 2.25 | 3.55 | 1.55
17 | 0.763 | 1.28 | 0.797 | KRGVSYILKLA [SERPINB1_Y84_A82V] | 0.676 | 0.524 | 0.504 | 1.34 | 0.446 | 1.4 | 0.558 | 0.426 | 0.557 | 0.534 | 0.768 | 0.412 | 1.6

Further lines, the sequence ahead of its results:

Row | Sequence | SH2 binding enrichment (c-Src SH2) | SH2 binding enrichment (Grb2 SH2) | SH2 binding enrichment (SHP2-C SH2) | phosphorylation enrichment (FGFR3) | phosphorylation enrichment (Fer (mouse)) | phosphorylation enrichment (EPHB1) | phosphorylation enrichment (Jak2) | phosphorylation enrichment (MERTK) | phosphorylation enrichment (AncSZ) | phosphorylation enrichment (Hck) | phosphorylation enrichment (Fyn) | phosphorylation enrichment (EPHB2) | phosphorylation enrichment (FGFR1) | phosphorylation enrichment (c-Abl (mouse)) | phosphorylation enrichment (c-Src) | phosphorylation enrichment (Fes)
18 | FGSGNYNVFGN [HNRNPA2B1_Y300_D302V_YF] | 0.682 | 0.766 | 0.805 | 0.434 | 0.338 | 0.481 | 0.449 | 0.406 | 0.575 | 0.423 | 0.396 | 0.476 | 0.483 | 0.328 | 0.412 | 0.508
19 | EIKLAYRRRPP [GRIN2B_Y1109_E1106K] | 0.362 | 0.708 | 0.525 | 0.584 | 0.98 | 0.568 | 0.861 | 0.652 | 0.735 | 0.789 | 0.526 | 0.617 | 0.537 | 0.756 | 0.885 | 0.532
20 | AIYRRYSKFFD [SH3PXD2B_Y45] | 0.511 | 0.674 | 0.495 | 0.555 | 0.383 | 0.603 | 0.83 | 0.596 | 0.989 | 0.594 | 0.485 | 0.568 | 0.509 | 0.783 | 0.636 | 1.03
21 | DLDTDYGSGFP [RNASEH2A_Y206_YF] | 0.404 | 0.589 | 0.592 | 0.588 | 0.465 | 0.585 | 0.979 | 0.38 | 1.22 | 0.49 | 0.45 | 0.443 | 0.447 | 0.673 | 0.511 | 0.978
22 | FSDPDYLAAVD [GLB1_Y154_S149F] | 0.417 | 0.746 | 0.551 | 0.691 | 0.475 | 0.58 | 0.928 | 0.42 | 1.45 | 0.702 | 0.504 | 0.556 | 0.479 | 0.577 | 0.381 | 0.939
23 | KLPYPYDDPFS [GPX2_Y127] | 3.58 | 0.97 | 0.544 | 0.745 | 0.434 | 0.458 | 0.954 | 0.515 | 1.09 | 0.589 | 0.534 | 0.532 | 0.507 | 0.705 | 0.546 | 1.06
24 | RGESFYQDTMN [RARS_Y338_R341T] | 0.694 | 0.98 | 0.807 | 0.888 | 1.79 | 2.62 | 0.941 | 1.02 | 1.02 | 0.429 | 0.634 | 1.63 | 0.695 | 1.03 | 0.602 | 0.98
25 | ERIEFYELNKK [PMM2_Y145_D148N] | 0.467 | 0.822 | 0.492 | 0.541 | 0.619 | 0.542 | 0.731 | 0.506 | 0.968 | 0.486 | 0.497 | 0.71 | 0.489 | 0.486 | 0.507 | 0.844
26 | SWKRRYFLLRA [APBB1IP_Y331] | 0.394 | 0.639 | 0.689 | 0.655 | 0.565 | 0.595 | 0.609 | 0.759 | 0.727 | 0.943 | 0.564 | 0.58 | 0.614 | 0.637 | 0.713 | 0.631
27 | MTKEQYIKMNQ [ARFGEF2_Y797_R802Q] | 0.517 | 0.968 | 0.487 | 0.637 | 0.399 | 0.38 | 0.706 | 0.381 | 0.662 | 0.443 | 0.347 | 0.575 | 0.687 | 0.665 | 0.341 | 0.805
28 | IPVNGYQPVPA [ROR2_Y824_V819I] | 0.756 | 0.934 | 0.692 | 0.523 | 0.337 | 0.385 | 0.533 | 0.899 | 0.582 | 0.513 | 0.429 | 0.467 | 0.36 | 0.592 | 0.472 | 0.633
29 | EFDRLYEEFTR [PIK3R1_Y467_YF] | 0.516 | 0.92 | 1.05 | 0.807 | 6.18 | 3.46 | 1.01 | 3.04 | 1.59 | 6.11 | 7.47 | 2.77 | 0.65 | 0.841 | 5.36 | 1.15
30 | QMVGMYASFYM [AVPR2_Y124_S127F] | 0.538 | 0.784 | 0.842 | 1 | 3.65 | 2.49 | 1.79 | 4.41 | 1.35 | 5.46 | 7.85 | 1.92 | 0.45 | 3.61 | 6.92 | 1.65
31 | KPLMPSMRYSR [SMARCE1_Y73_Y73S] | 0.441 | 0.717 | 0.499 | 0.467 | 0.377 | 0.328 | 0.555 | 0.467 | 0.823 | 0.462 | 0.383 | 0.445 | 0.405 | 0.49 | 0.498 | 0.756
32 | QDTSRYTVCNL [BIRC3_Y245_S248C] | 1.29 | 0.79 | 0.78 | 0.469 | 0.557 | 0.528 | 0.741 | 0.348 | 0.745 | 0.359 | 0.546 | 0.439 | 0.418 | 0.854 | 0.439 | 0.815
33 | ALKKPYSVLFK [RPF2_Y59_G60S_YF] | 1.58 | 1.6 | 1.65 | 0.617 | 0.502 | 0.411 | 0.729 | 0.448 | 0.815 | 0.435 | 0.419 | 0.43 | 0.556 | 0.581 | 0.526 | 0.968
